{"source": "paper PMC4576506", "biological_target": "recombinant human glycine receptor α1 subunit (hGlyRα1) homopentamer, detergent solubilized (human) (UniProt P23415)", "assay": "SEC", "data": [{"substance": "recombinant human glycine receptor α1 subunit (hGlyRα1) homopentamer, detergent solubilized (from UniProt P23415-2 29-449)", "values": [{"measurement": "stoichiometry N", "value": 5}]}]}
